Values of other authors as cited in article PMC9965408.

Target: plasmin (Homo sapiens) (UniProt P00747)
UniProt P00747, sequence (P00747 581-810): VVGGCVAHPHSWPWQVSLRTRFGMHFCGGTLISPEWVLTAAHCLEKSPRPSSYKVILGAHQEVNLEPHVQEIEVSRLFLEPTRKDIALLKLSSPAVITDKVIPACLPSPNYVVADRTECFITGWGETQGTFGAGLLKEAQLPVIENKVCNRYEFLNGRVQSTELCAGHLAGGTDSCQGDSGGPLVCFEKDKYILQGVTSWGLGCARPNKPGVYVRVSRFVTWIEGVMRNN

## AaTI (from UniProt Q177W0)
  Ki: 7 µM
